As a reminder, the Kd is the free concentration of one partner at which half of the binding sites on the other are occupied at equilibrium, for simple one-to-one binding. A high value points to lower affinity. For orientation: IC50 means the concentration that gives 50% inhibition. Usually EC50 stands for the concentration that produces a half-maximal response. Read a high EC50 as lower potency in that assay.

Assay [1] deals with human SIRPα expressed on the surface of human monocyte-derived dendritic cells (human) (UniProt P78324). Briefly: flow cytometry on human monocyte-derived dendritic cells. A general note: In flow cytometry, cells or beads pass a laser one at a time.
Chain of human SIRPα expressed on the surface of human monocyte-derived dendritic cells (human) (P78324 31-504): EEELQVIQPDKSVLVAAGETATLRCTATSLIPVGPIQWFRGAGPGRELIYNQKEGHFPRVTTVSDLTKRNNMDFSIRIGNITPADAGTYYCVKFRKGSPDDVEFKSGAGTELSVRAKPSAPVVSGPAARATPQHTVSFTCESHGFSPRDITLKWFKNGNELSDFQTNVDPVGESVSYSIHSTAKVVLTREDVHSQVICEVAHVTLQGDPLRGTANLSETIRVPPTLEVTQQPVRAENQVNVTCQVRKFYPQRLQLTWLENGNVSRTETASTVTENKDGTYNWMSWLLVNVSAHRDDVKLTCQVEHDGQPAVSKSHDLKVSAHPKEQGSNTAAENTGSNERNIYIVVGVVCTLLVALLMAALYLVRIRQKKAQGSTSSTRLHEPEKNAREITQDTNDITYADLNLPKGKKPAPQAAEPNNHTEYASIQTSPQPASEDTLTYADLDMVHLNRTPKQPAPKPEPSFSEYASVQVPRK
The target of assay [2] is cell-surface SIRPα (mDC) (human) (UniProt P78324). Briefly: FACS blocking of CD47/SIRPα; Donor #296; isotype control, flat curve.
Chain of cell-surface SIRPα (mDC) (human) (P78324 31-504): as above
For assay [3], the target named is mDC cell surface SIRPα (human) (UniProt P78324). Briefly: FACS binding; Donor #298; isotype control, flat curve.
Chain of mDC cell surface SIRPα (human) (P78324 31-504): as above
The target in assay [4] is cell-surface SIRPα (mDC) (human) (UniProt P78324). Briefly: FACS blocking of CD47/SIRPα; Donor #298; isotype control, flat curve.
For assay [5], the target named is mDC cell surface SIRPα (human) (UniProt P78324). As to the kind of experiment: FACS binding; Donor #296; isotype control, flat curve.

In assay [1], IgG4 isotype (antibody) registered a dissociation constant Kd of 2.1 pM.
Regarding IgG4 isotype, the half-inhibitory concentration (IC50) in assay [2] was found to be 424 pM; in assay [4], 17.7 pM. Also, the EC50 amounted to 25 pM in assay [3] and 38600 pM in assay [5].

Values taken from US20230340112A1.
